From the nanobody polyreactivity screen of Harvey et al. (2022)

experiment: yeast display, Sf9 membrane polyspecificity reagent, FACS + sequencing; frameworks hold sequencing errors
Outline: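 Nanobodies came from a synthetic yeast display library in Saccharomyces cerevisiae BJ5465, induced with galactose for 36–48 hours and stained for 1 hour at 4 °C with 10% biotinylated, detergent-solubilized Sf9 membrane reagent. Cells were enriched on streptavidin microbeads and then FACS-sorted, with low and high (top ~1%) gates set on anti-HA fluorescence for expression and streptavidin fluorescence for reagent binding. Each polyreactivity label reflects the gate a clone came from. Genes were amplified by colony PCR, sequenced by MiSeq 2 × 250 and filtered by CDR length.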

| Sequence | polyreactivity (PSR sort gate) |
| --- | --- |
| QVQLVESGGGLVQAGGSLRLSCAASGSNFQYVYAMGWYRQAPGKERELVAAINGGSGSTYYADSVKGSFTISRDNAKNTVYLQMNSLKPEDTAVYYCNRDYEYPTYPHDYWGQGTQVTVSS | low polyreactivity |
| QVQLVESGGGLVQAGGSLRLSCAASGSNFRGYTMGWYRQAPGKERELVAAISLSGGSTYYADSVKGRFTISRDNAKNTVYLQMNSLKPEDTAVYYCAASLPWYDEFDYWGQGTQVTVSS | low polyreactivity |
| QVQLVESGGGLVQAGGSLRLSCAASGSNFRYNAMGWYRQAPGKERALVAAISGRGTSTYYADSVKGRFTISRDNAKNTVYLQMNSLKPEDTAVYYCAAVYFRTFLVEYYYWGQGTQVTVSS | high polyreactivity |
| QVQLVESGGGLVQAGGSLRLSCAASGSNFRYYAMGWDRQAPGKERELVAAISYSGGTTYYADSVKGRFTISRDNAKNTVYLQMNSLKPEDTAVYYCAVPLIGVDGYAYDYWGQGTQVTVSS | low polyreactivity |
| QVQLVESGGGLVQAGGSLRLSCAASGSNFSPNAMGWYRQAPGKERELVAAIDTRDGTTYYADSVKGRFTISRDNAKNTVYLQMNSLKPEDTAVYYCAAGGPVRYGIATPTGAKRFGYWGQGTQVTVSS | low polyreactivity |
| QVQLVESGGGLVQAGGSLRLSCAASGSNFTFYAMGWYRQAPGKERELVAAISKGGDRTYYADSVKGRFTISRDNAKNTVYLQMNSLKPEDTAVYYCARLVRPGRFGDGDYWGQGTQVTVSS | low polyreactivity |
| QVQLVESGGGLVQAGGSLRLSCAASGSNFWRNVMGWYRQAPGKERELVAAISSGGSTYYADSVKGRFTISRDNAKNTVYLQMNSLKPEDTEVYYCAAPRYDYWGQGTQVTVSS | high polyreactivity |
| QVQLVESGGGLVQAGGSLRLSCAASGSNFWSNAMRWYRQAPGKERELVATIDDDVGSTYYADSVKGRFTISRDNAKNTVYFQMNSLKPEDTAVYYCAADTSGADAYTKVRDGYDYWGQGTQVSVSS | low polyreactivity |
| QVQLVESGGGLVQAGGSLRLSCAASGSNFYDYAMGWYRQAPGKERELVAAISSGGGTYYADSVKGRFTISRDNAKNTVYLQMNSLKPEDTAVYYCNADTYEWFSDFSEDSYDYWGQGTQVTVSS | low polyreactivity |
| QVQLVESGGGLVQAGGSLRLSCAASGSNFYPYTMGWYRQAPGKERELVAAISGGGRTYYADSVKGRFTISRDNAKNTVFLQMNSLNPEDTAVYYCAARYVYRWLVGKYEYWGQGTQVTLSS | high polyreactivity |
| QVQLVESGGGLVQAGGSLRLSCAASGSNFYQYAMGWYRPAPRKERELVAAISVRAGITYYADSVTGRFTISRDNAKYTVYLQMNSLKPEDTAVYYCAKDHWTTSYDEGDYWGQGTQVTVSS | low polyreactivity |
| QVQLVESGGGLVQAGGSLRLSCAASGSNFYSYAMGWYRQAPGKESELVAAITKSSGSTYYAASVKGRFTISRDYAKNTVYLQMNSLKPEDTAVYYCAATRYRPVRLYYWGQGTQVTVSS | high polyreactivity |
| QVQLVESGGGLVQAGGSLRLSCAASGSNFYVYAMGCYRQAPGKERELVAAINYDSGSTYYADSVKGRFTISRDTAKNTVYLQMNSLIPEDTAVYYCGTDGVNPFYAYDYWGQGTQVTVSS | low polyreactivity |
| QVQLVESGGGLVQAGGSLRLSCAASGSNFYVYAMLWYRQAPGKERELVADITTRDGDTYYADSVKGRFTISRDNAKNTVYLQMNSLKPEDTAVYYCAADLNAYPLRAYDYWGQGTQVTVSS | low polyreactivity |
| QVQLVESGGGLVQAGGSLRLSCAASGSNFYYKAMGWYRQAPGKERELVAAITSGDSTNYADSVKGRFTISRDNAKNTVYLQMNSLKPEDTAVYYCAADYLAALTYYRTYDYWGQGTQVTVSS | low polyreactivity |
| QVQLVESGGGLVQAGGSLRLSCAASGSNIATYAMGWYRQAPWKETELVAAISSTGRTYYADSVKGRFTISRDNAKNTVYLQMTRLKPVDTAVYYCNTVRYRSRYGMDYWGQGTQVTVSS | high polyreactivity |
| QVQLVESGGGLVQAGGSLRLSCAASGSNIERNAMGWYIQAPGKERELVANITWSGVSTYYADSVKGRFTISRDNAKNTVYLQMNSLKPEDTAVYYCNADYSYRHWYDPGQYGQAMGYWGQGTQVTVSS | low polyreactivity |
| QVQLVESGGGLVQAGGSLRLSCAASGSNIFQYDMGWYRQAPGKERELVAAITISGGSTYYADSVKGRFTISRDNAKNTVYLQLNILKPEDTAVYYCNADYEWYLGGYDYWGQGTQVTVSS | high polyreactivity |
| QVQLVESGGGLVQAGGSLRLSCAASGSNLPYYAMGWYRQAPVKERELVAAISYSGGSTYYADSVKGRFTISRDNAKNPVFLQMYSLKPEVTAVYDCNAVVRSPAHGFWGQCTQVTVSS | high polyreactivity |
| QVQLVESGGGLVQAGGSLRLSCAASGSNLVQNAMGWYRQAPGKERELVAAINWSGASTYYADSVKGRFTISRDNAKNTVYLQMNSLKPEDTAVYYCATVTLFFTDYYSWADVYTEYDYWGQGTQVTVSS | low polyreactivity |
| QVQLVESGGGLVQAGGSLRLSCAASGSNMGDNGMGWYRKAPGKERELVAAITNGGSTTYADSVKGRFTISRDNAKNTVYLQMNSLKPEDTAVYYCAADQQDRDQYSDWTEYDYWGQGTQVTVSS | low polyreactivity |
| QVQLVESGGGLVQAGGSLRLSCAASGSNYRNAMGWYRQAPGKERELVAAISSSGGRTYYADSVKGRFTISRDNAKNTVYLKMNSLKPEDTAVYYCAKVGPYWSRGKYWGQGTQVTVSS | high polyreactivity |

| Sequence | polyreactivity (PSR sort gate) |
| --- | --- |
| QVQLVESGGGLVQAGGSLRLSCAASGSPFFPYAMGGYRQAPGKERELVAGISSDGGTSYADSVKGRFTISRDNAKNTVYLQMNSLKPEDTAVYYCAKETIGQDPVSGAWARHEYDYWGQGTQVTVSS | low polyreactivity |
| QVQLVESGGGLVQAGGSLRLSCAASGSPFKRYAMGWYRQAPGKERELVASITRRGGSTYYADSVKGRFTISRDNAKNTVYLKMNSLKPEDSAVYYCAALQGRSSARQDSYGYWGQGTQVTVSS | high polyreactivity |
| QVQLVESGGGLVQAGGSLRLSCAASGSPFYNYAMGWYRQAPGKERELVAAIRNGGGTNYADSVKGRFTISRDNAKNTVYLQMNSLKPEDTAVYDCNKAYGVSGTGVDYWGQGTQVTVSS | low polyreactivity |
| QVQLVESGGGLVQAGGSLRLSCAASGSSFAENAMGWSRQAPGKERELVATIRSGGSTYADSVKGRFTISRDNAKKTVNLQMNILKPEDTAVYYCATDRYPHSATPGDYWGQGTQVTVSS | low polyreactivity |
| QVQLVESGGGLVQAGGSLRLSCAASGSSFGSNAMGWSRPAPGKERELVAAITGGDVSTYYADSVKGRFTISRDNAKNTVYLQMNSLKPEDTAVYYCNAEYARPAMDYWGQGTQVTVSS | low polyreactivity |
| QVQLVESGGGLVQAGGSLRLSCAASGSSFGYYAMGWYRPAPGKERELVAAITRRGVNTYYADSVKGRFTISRDNAKNTVYLQMNSLKPEDTAVYYCAATWWQYAQGLHRYDYWGQGTQVTVSS | high polyreactivity |
| QVQLVESGGGLVQAGGSLRLSCAASGSSFPENAMGWYRQAPGKERQLVAGISRSDAGTHYADSVKGRFTISRDNAKNTVYVQMNSLKPEDTAVYYFDAGGTDEDRLTSWVGLFPAYYYWGQATQVTVSS | low polyreactivity |
| QVQLVESGGGLVQAGGSLRLSCAASGSSFSRNAMGWYRQAPGKESELVAAISWSGGRTYYAASVKGRFTISRDNAKNTVYLQMNSLKPEDTAVYYCAKGYSYHWYHVTYYSLGQGTQVTVSS | high polyreactivity |
| QVQLVESGGGLVQAGGSLRLSCAASGSSFSSYAMGRYRQAPAKERELVASNNIGGSTNYADSVKGRFTISRDNAKITVYLHMNSLKPEDTAVYSCNAVGYNVGGEGDYWGQGTQVTVSS | high polyreactivity |
| QVQLVESGGGLVQAGGSLRLSCAASGSSFSWNAMGWYSQAPGKERELVAAISKRGTSTYYADSVKGRFTISRDNAKKTVYLQMNSLKPEDTAVYYCAARRYYGVYYAFYYWGQGTQVTVSS | high polyreactivity |
| QVQLVESGGGLVQAGGSLRLSCAASGSSFVRNGMGWYRQAPGKERELVASIRGSGSRTYYADSVKGRFTISRDNAKNTVYLQMNSLKPEDTAVYYCAAGYWRYYHYPPASGYWGQGTQVTVSS | high polyreactivity |
| QVQLVESGGGLVQAGGSLRLSCAASGSSFWSNAMGWYRQAPGKEREFVAAINWSGDNTYYADSVKGRFTISRDNSKNKVYLKLISLKPEDTAVYYCIGVGDYPKYSGGFDYCGQGTQVTVSS | low polyreactivity |
| QVQLVESGGGLVQAGGSLRLSCAASGSTCYSNAMGWYRQAPGNERELVAGISGSGGSTYYADSVKGRFTISRDNAKNTVYLHMNSLKPEDTAVYYCNARKTRSYFRFDSWGQGTQVTVSS | low polyreactivity |
| QVQLVESGGGLVQAGGSLRLSCAASGSTDSNAMGWNRQAPGKEREMVAPISGTGSRTYYADSVKGRFTISRDNAKNTVYFQLNSLKTEDTAVYYCNKDVYGYSRTGPRGYDYWGQGTQVTVSS | high polyreactivity |
| QVQLVESGGGLVQAGGSLRLSCAASGSTFAANAMGWYRPAPGKERELVAAITSSGGSTYYADSVKGRFTISRDNAKNTVYLQMNSLKPEDTAVYYCNKDIERYVRIYDSWGQGTQVTVSS | low polyreactivity |
| QVQLVESGGGLVQAGGSLRLSCAASGSTFAANAMGWYRQAPGKERELVAAIDSSTGSTYYADSVKGRFTISRDIAKNNVFLQMNRLKPEDTAVYYCNKTSFLVKLDYWGQGTQVTVSS | low polyreactivity |
| QVQLVESGGGLVQAGGSLRLSCAASGSTFAANAMGWYRQAPGKERELVAAITSSGGSTYYADSVKGRFTISRDNAKNTVYLQLNSLKPEVTAVYYCNKDIERYVRIYDSWGQGTQVTVSS | low polyreactivity |
| QVQLVESGGGLVQAGGSLRLSCAASGSTFAFNAMGWYRQAPGKEREFVARITWTYGSTYYADSVKGRFTISRDNAKNTVYLQMNSLKPEDTAVYYCARDPTEQAIARWTYDYWGQGTQVTVSS | low polyreactivity |
| QVQLVESGGGLVQAGGSLRLSCAASGSTFAFNAMGWYRQAPGKERELVAGITWSSGSTYYADSVKGRFTISRDNAKNTVYLQMNSLKPEDTAVYYCAVSGTRTIWGQGTQVTVSS | high polyreactivity |
| QVQLVESGGGLVQAGGSLRLSCAASGSTFAFNTKGWYRQAPGKERELVAGISSNGGRTYYADSVKGRFTISRDNAKNTVYLQMNSLKPEDTAVYYCNALRRYVSVRPTKSDDWGQGTQVTVSS | high polyreactivity |
| QVQLVESGGGLVQAGGSLRLSCAASGSTFAFYAMGWYRQAPGKERELVAAISRSGGRTYYADSVKGRFTISRDNAKNTVYLQMNSLKPEDTAVYYFAAPSSITTGPHREYDYWGQGTQVTVSS | high polyreactivity |
